Target: the molecule itself
Experiment: cryo-EM structure

B1: mouse DUOX1 (enzyme, mouse (Mus musculus), UniProt A2AQ92 20-1551, looked up)
chain: GAQNSISWEVQRFDGWYNNLMEHRWGSKGSRLQRLVPASYADGVYQPLKEPYLPNPRHLSNRVMRGSAGQPSLRNRTVLGVFFGYHVLSDLVSVETPGCPAEFLNIYIPHGDPVFDPDKRGNVVLPFQRSRWDRNTGQSPSNPRDQSNQVTGWLDGSAIYGSSHSWSDTLRSFSGGQLASGPDPAFPSDSQSSLLMWMAPDPSTGQGGPRGVYAFGAQRGNREPFLQALGLLWFRYHNLCARKLAQEHPHWGDEELFQHARKRVIATYQNIAMYEWLPSFLKQTPPEYPGYRPFLDPSISPEFVVASEQFLSTMVPSGVYMRNASCHFQGIPSHNSSVSGALRVCNSYWSREHPKLQRAEDVDALLLGMASQIAEREDHVVVEDMQDFWPGPLKFSRTDYLASCLQRGRDLGLPSYTKAREALGLSPISHWQDINPALSRSNGTVLEATAALYNQDLSRLELLPGGLLESHGDPGPLFSTIVLDQFVRLRDGDRYWFENTRNGLFSKEEIAEIRNTSLRDILVAVTNVDPSALQPNVFFWLAGDPCPQPSQLSAKGLPACAPLFIRDYFEGSGFGFGLTIGTLCCFPLVSLLSAWIVARLRKRNFKRLQRQDRQSIMSEKLVGGVEALEWQGRNEPCRPVLVHLQPGQIRVVDGRLTVLRTIQLRPPQQVNLILSSNRGRRTLLLKIPKEYDLVLLFNMEEERQALVENVRGALKENGLSFQEWELREQELMRAAVTRQQRGHLLETFFRHLFSQVLDINQADAGTLPLDSSTKVREALTCELSRAEFADSLGLKPQDMFVESMFSLADKDGNGYLSFREFLDILVVFMKGSPEEKSRLMFRMYDFDGNGLISKDEFIRMLRSFIEISNNCLSKAQLAEVVESMFRESGFQDKEELTWEDFHFMLRDHDSDLRFTQLCVKGVEVPEVIKNLCRRASYISQEKICPSPRMSAHCARNNMKTASSPQRLQCPMDTDPPQEIRRRFGKKVTSFQPLLFTEAHREKFQRSRRHQTVQQFKRFIENYRRHIGCVAVFYTITGALFLERAYYYAFAAHHSGITDTTRVGIILSRGTAASISFMFSYILLTMCRNLITFLRETFLNRYIPFDAAVDFHRLIASTAIILTVLHSAGHVVNVYLFSISPLSVLSCLFPGLFHDDGSEFPQKYYWWFFQTVPGLTGVLLLLALAIMYVFASHHFRRRSFRGFWLTHHLYIFLYILLIIHGSFALIQMPRFHIFFLVPAIIYVGDKLVSLSRKKVEISVVKAELLPSGVTHLRFQRPQGFEYKSGQWVRIACLALGTTEYHPFTLTSAPHEDTLSLHIRAAGPWTTRLREIYSPPTGDTCARYPKLYLDGPFGEGHQEWHKFEVSVLVGGGIGVTPFASILKDLVFKSSVSCQVFCKKIYFIWVTRTQRQFEWLADIIREVEENDRQDLVSVHIYITQLAEKFDLRTTMLYICERHFQKVLNRSLFTGLRSITHFGRPPFEPFFNSLQEVHPQVRKIGVFSCGPPGMTKNVEKACQLINRQDRTHFSHHYENF
modifications: sugar densities at glycosylation sites N94, N324 and N534
stoichiometry N: 2

— publication PMC7644671 (Nature structural & molecular biology, 2020)
